Data as given in patent publication US10766960 (dated 2020).
Where a chain is given by its changes, count along the chain named.

T1: FcgRIIb (human, UniProt P31994)
T1 chain: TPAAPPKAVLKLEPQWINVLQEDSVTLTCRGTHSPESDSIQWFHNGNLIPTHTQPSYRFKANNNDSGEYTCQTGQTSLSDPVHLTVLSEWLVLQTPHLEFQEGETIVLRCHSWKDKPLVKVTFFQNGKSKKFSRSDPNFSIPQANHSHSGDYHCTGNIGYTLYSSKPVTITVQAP

T2: FcgRIIa H (human, UniProt P12318)
T2 chain: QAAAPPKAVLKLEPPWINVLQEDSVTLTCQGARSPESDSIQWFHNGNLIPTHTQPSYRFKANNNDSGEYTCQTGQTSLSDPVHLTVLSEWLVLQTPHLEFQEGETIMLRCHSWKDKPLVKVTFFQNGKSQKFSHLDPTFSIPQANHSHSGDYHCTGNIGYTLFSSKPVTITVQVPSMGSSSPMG

T3: FcgRIIa R (human, UniProt P12318)
T3 chain: T2 chain with H134R

T4: FcgRIa (human, UniProt P12314)
T4 chain: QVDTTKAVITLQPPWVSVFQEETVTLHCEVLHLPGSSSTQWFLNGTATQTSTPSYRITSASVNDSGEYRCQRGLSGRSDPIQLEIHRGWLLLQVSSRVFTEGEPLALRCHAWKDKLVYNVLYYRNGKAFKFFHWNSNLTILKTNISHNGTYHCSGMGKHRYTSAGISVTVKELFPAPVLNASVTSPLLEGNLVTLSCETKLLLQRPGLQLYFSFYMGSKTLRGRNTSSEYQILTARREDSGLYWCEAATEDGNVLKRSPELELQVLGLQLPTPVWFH

B1: H240-Kn184/H240-Hl068/L73-k0 (antibody)
chain 1: QDQLVQSGAEVKKPGASVKVSCKASGFNIKDTYIQWVRQAPGQGLEWMGRIDPLRKQTKYREKFEGRVTITADTSTNTAYMELSSLRSEDTAVYYCVRSGREFDYWGQGTLVTVSSASTKGPSVFPLAPSSKSTSGGTAALGCLVKDYFPEPVTVSWNSGALTSGVHTFPAVLQSSGLYSLSSVVTVPSSSLGTQTYICNVNHKPSNTKVDKKVEPKSCDKTHTCPPCPAPEEYWGPMVFLFPPKPKDTLMISRTPEVTCVVVDVSDEDPEVKFNWYVDGVEVHNAKTKPREEQYNATYRVVSVLTVLHQDWLNGKEYKCKVSNKDLPAPIEKTISKAKGQPREPQVCTLPPSRDELTKNQVSLWCLVKGFYPSDIAVEWESNGQPENNYKTTPPVLDSDGSFFLYSKLTVDKSRWQQGNVFSCSVMHEALHNHYTQKSLSLSP
chain 2: QDQLVQSGAEVKKPGASVKVSCKASGFNIKDTYIQWVRQAPGQGLEWMGRIDPLRKQTKYREKFEGRVTITADTSTNTAYMELSSLRSEDTAVYYCVRSGREFDYWGQGTLVTVSSASTKGPSVFPLAPSSKSTSGGTAALGCLVKDYFPEPVTVSWNSGALTSGVHTFPAVLQSSGLYSLSSVVTVPSSSLGTQTYICNVNHKPSNTKVDKKVEPKSCDKTHTCPPCPAPELLGGPSVFLFPPKPKDTLMISRTPEVTCVVVDVSHEEPEVKFNWYVDGVEVHNAKTKPREEQYNSTYRVVSVLTVLHQDWLNGKEYKCKVSNDALPKPIEETISKAKGQPREPQVYTLPPSRCELTKNQVSLSCAVKGFYPSDIAVEWESNGQPENNYKTTPPVLDSDGSFFLVSKLTVDKSRWQQGNVFSCSVMHEALHNHYTQKSLSLSP
chain 3: DIQMTQSPSSLSASVGDRVTITCRASQDIHKYIAWYQQKPGQAPRLLIQYTSTLQPGVPSRFSGSGSGTDYTFTISSLQPEDIATYYCLQYEQLRTFGGGTKVEIKRTVAAPSVFIFPPSDEQLKSGTASVVCLLNNFYPREAKVQWKVDNALQSGNSQESVTEQDSKDSTYSLSSTLTLSKADYEKHKVYACEVTHQGLSSPVTKSFNRGEC
B2: H240-Kn208/H240-Hl076/L73-k0 (antibody)
chain 1: B1 chain 1 with E233D, Y234Q, D269E, D326A
chain 2: B1 chain 2 with K329M
chain 3: B1 chain 3
B3: H240-Kn202/H240-Hl076/L73-k0 (antibody)
chain 1: B1 chain 1 with Y234Q, D269E, D326A
chain 2: B1 chain 2 with K329M
chain 3: B1 chain 3
B4: H240-Kn201/H240-Hl076/L73-k0 (antibody)
chain 1: B1 chain 1 with E233F, Y234Q, D269E, D326A
chain 2: B1 chain 2 with K329M
chain 3: B1 chain 3
B5: H240-Kn199/H240-Hl068/L73-k0 (antibody)
chain 1: B1 chain 1 with E233L
chain 2: B1 chain 2
chain 3: B1 chain 3
B6: H240-Kn211/H240-Hl076/L73-k0 (antibody)
chain 1: B1 chain 1 with E233M, Y234Q, D269E, D326A
chain 2: B1 chain 2 with K329M
chain 3: B1 chain 3
B7: H240-Kn200/H240-Hl076/L73-k0 (antibody)
chain 1: B1 chain 1 with E233S, Y234Q, D269E, D326A
chain 2: B1 chain 2 with K329M
chain 3: B1 chain 3
B8: H240-Kn209/H240-Hl076/L73-k0 (antibody)
chain 1: B1 chain 1 with E233Q, Y234Q, D269E, D326A
chain 2: B1 chain 2 with K329M
chain 3: B1 chain 3
B9: H240-Kn219/H240-Hl068/L73-k0 (antibody)
chain 1: B1 chain 1 with E233I
chain 2: B1 chain 2
chain 3: B1 chain 3
B10: H240-Kn223/H240-Hl068/L73-k0 (antibody)
chain 1: B1 chain 1 with E233G
chain 2: B1 chain 2
chain 3: B1 chain 3
B11: H240-Kn217/H240-Hl068/L73-k0 (antibody)
chain 1: B1 chain 1 with E233D
chain 2: B1 chain 2
chain 3: B1 chain 3
B12: H240-Kn216/H240-Hl068/L73-k0 (antibody)
chain 1: B1 chain 1 with E233V
chain 2: B1 chain 2
chain 3: B1 chain 3
B13: H240-Kn203/H240-Hl068/L73-k0 (antibody)
chain 1: B1 chain 1 with E233F
chain 2: B1 chain 2
chain 3: B1 chain 3
B14: H240-Kn214/H240-Hl076/L73-k0 (antibody)
chain 1: B1 chain 1 with E233G, Y234Q, D269E, D326A
chain 2: B1 chain 2 with K329M
chain 3: B1 chain 3
B15: H240-Kn220/H240-Hl068/L73-k0 (antibody)
chain 1: B1 chain 1 with E233M
chain 2: B1 chain 2
chain 3: B1 chain 3
B16: H240-Kn215/H240-Hl076/L73-k0 (antibody)
chain 1: B1 chain 1 with E233H, Y234Q, D269E, D326A
chain 2: B1 chain 2 with K329M
chain 3: B1 chain 3

Tests used:
Assay in all cases: SPR
FcgRIIb = target: T1, FcgRIIb
FcgRIIIa V = FcgRIIIa V (human, UniProt P08637)
Sequence of FcgRIIIa V (P08637 17-208 F176V): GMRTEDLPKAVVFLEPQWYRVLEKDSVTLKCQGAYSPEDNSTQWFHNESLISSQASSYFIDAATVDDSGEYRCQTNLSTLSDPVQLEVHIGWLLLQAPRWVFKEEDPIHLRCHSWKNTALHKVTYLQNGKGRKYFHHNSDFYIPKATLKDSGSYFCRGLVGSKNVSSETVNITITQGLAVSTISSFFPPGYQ

FcgRIIa H = target: T2, FcgRIIa H
FcgRIIa R = target: T3, FcgRIIa R
FcgRIa = target: T4, FcgRIa
FcgRIIIa F = FcgRIIIa F (human, UniProt P08637)
Sequence of FcgRIIIa F (P08637 17-208): as the sequence (P08637 17-208 F176V) above, with V160F counted along it

| Binder | Kd (FcgRIIb) [nM] | Kd (FcgRIIIa V) [nM] | Kd (FcgRIIa H) [nM] | Kd (FcgRIIa R) [nM] | Kd (FcgRIa) [nM] | Kd (FcgRIIIa F) [nM] |
| --- | --- | --- | --- | --- | --- | --- |
| B1 | 150 | 0.34 | 70 | 27 | 0.16 | 2.2 |
| B2 | 3200 | 0.4 | 310 | 500 | 0.1 | 1.8 |
| B3 | 4100 | 0.38 | 360 | 640 | 0.071 | 1.6 |
| B4 | 5400 | 0.36 | 140 | 720 | 0.058 | 1.8 |
| B5 | 130 | 0.41 | 27 | 20 | 0.31 | 2.3 |
| B6 | 4200 | 0.52 | 200 | 550 | 0.084 | 1.9 |
| B7 | 6200 | 0.59 | 230 | 790 | 0.088 | 2.4 |
| B8 | 7500 | 0.62 | 250 | 1200 | 0.083 | 2.4 |
| B9 | 90 | 0.49 | 20 | 14 | 0.15 | 2.7 |
| B10 | 280 | 0.57 | 94 | 62 | 0.13 | 4.2 |
| B11 | 120 | 0.38 | 76 | 28 | 0.17 | 2.4 |
| B12 | 160 | 0.46 | 32 | 23 | 0.17 | 3.4 |
| B13 | 270 | 0.76 | 49 | 46 | 0.43 | 3.4 |
| B14 | 7100 | 0.8 | 330 | 1100 | 0.061 | 3.4 |
| B15 | 160 | 0.5 | 34 | 25 | 0.15 | 3.5 |
| B16 | 6100 | 0.68 | 250 | 1000 | 0.089 | 2.6 |
